{"source": "patent US20240287172A1", "about": "(SCIRHOM, published 2024)", "binders": {"B1": {"name": "antibody 50 (antibody, V domains shown)", "VH": "QVQLQQSGAELVRPGASVKVSCKASGYAFSNYLIEWVKQRPGQGLEWIGVINPGSGFTKYNEKFKGKATLTADKSSSTAYMQLSSLTSEDSAVYFCARGLYRAMDYWGQGTSVTVSS", "VL": "DIQMTQSPASQSASLGESVTITCLASQTIGTWLAWYQQKPGKSPQLLIYAAASLADGVPSRFSGGGSGTKFSFKISSLQAEDFVNYYCQQIYSTPYTFGGGTKLEIK", "notes": "mouse IgG, kappa light chain; also called clone #50; purified antibody 50"}}, "molecular_target": "T1, hiR2-FL-H505R-T7 (human, UniProt Q6PJF5 1-856)", "T1 sequence": "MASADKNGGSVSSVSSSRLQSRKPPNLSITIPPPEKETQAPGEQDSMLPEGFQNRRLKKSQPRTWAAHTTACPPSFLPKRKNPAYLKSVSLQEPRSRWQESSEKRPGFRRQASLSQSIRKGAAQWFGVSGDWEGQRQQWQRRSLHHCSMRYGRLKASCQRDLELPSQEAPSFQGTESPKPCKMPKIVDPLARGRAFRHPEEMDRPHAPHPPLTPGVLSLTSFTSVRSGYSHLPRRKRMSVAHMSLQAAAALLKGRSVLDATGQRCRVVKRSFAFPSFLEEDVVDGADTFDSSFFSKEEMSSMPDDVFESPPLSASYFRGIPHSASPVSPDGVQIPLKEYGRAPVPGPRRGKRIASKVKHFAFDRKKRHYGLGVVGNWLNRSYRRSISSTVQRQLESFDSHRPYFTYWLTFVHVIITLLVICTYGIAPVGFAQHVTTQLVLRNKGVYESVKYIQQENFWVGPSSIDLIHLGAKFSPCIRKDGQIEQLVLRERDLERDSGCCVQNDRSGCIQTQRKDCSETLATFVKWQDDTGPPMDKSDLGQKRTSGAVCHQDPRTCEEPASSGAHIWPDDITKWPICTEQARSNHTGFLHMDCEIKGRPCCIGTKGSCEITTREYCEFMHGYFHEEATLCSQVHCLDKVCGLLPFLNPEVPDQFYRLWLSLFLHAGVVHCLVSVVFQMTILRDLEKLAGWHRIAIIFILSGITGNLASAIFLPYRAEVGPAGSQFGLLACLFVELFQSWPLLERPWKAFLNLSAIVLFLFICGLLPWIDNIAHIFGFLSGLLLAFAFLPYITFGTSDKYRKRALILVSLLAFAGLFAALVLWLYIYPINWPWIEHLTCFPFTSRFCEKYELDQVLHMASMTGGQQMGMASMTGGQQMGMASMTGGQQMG", "experiment": "FACS, MEF-DKO cells, 3 µg/ml", "data": [{"binder": "B1", "values": [{"measurement": "loss of binding vs wild type", "result": "≥ 95", "unit": "%"}]}]}
